{"source": "paper PMC1636418", "binders": {"B1": {"name": "(dC-dG)20 (dsDNA)", "DNA 1": "CGCGCGCGCGCGCGCGCGCGCGCGCGCGCGCGCGCGCGCG", "DNA 2": "B1 DNA 1"}}, "test_in_all_cases": "EMSA", "key": {"ZαβZBP1 N141D/Y145A": {"biological_target": "T1, ZαβZBP1 N141D/Y145A (Homo sapiens, UniProt Q9H171 4-167, N141D;Y145A)", "T1 sequence": "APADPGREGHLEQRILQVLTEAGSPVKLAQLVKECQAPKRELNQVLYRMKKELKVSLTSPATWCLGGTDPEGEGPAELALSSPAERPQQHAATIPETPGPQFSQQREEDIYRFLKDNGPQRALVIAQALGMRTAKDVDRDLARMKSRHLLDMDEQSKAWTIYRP"}, "ZαβZBP1 N46D": {"biological_target": "T2, ZαβZBP1 N46D (Homo sapiens, UniProt Q9H171 4-167, N46D)", "T2 sequence": "T1 sequence with N43D, D138N, A142Y"}, "ZαβZBP1 Y50A": {"biological_target": "T3, ZαβZBP1 Y50A (Homo sapiens, UniProt Q9H171 4-167, Y50A)", "T3 sequence": "T1 sequence with Y47A, D138N, A142Y"}, "[1]": {"biological_target": "T4, ZαβZBP1 N46D/Y50A/N141D/Y145A (Homo sapiens, UniProt Q9H171 4-167, N46D;Y50A;N141D;Y145A)", "T4 sequence": "T1 sequence with N43D, Y47A"}, "ZαβZBP1 N46D/Y50A": {"biological_target": "T5, ZαβZBP1 N46D/Y50A (Homo sapiens, UniProt Q9H171 4-167, N46D;Y50A)", "T5 sequence": "T1 sequence with N43D, Y47A, D138N, A142Y"}, "ZαβZBP1": {"biological_target": "T6, ZαβZBP1 (Homo sapiens, UniProt Q9H171 4-167)", "T6 sequence": "T1 sequence with D138N, A142Y"}, "ZαβADAR1": {"biological_target": "T7, ZαβADAR1 (Homo sapiens, UniProt P55265 133-368)", "T7 sequence": "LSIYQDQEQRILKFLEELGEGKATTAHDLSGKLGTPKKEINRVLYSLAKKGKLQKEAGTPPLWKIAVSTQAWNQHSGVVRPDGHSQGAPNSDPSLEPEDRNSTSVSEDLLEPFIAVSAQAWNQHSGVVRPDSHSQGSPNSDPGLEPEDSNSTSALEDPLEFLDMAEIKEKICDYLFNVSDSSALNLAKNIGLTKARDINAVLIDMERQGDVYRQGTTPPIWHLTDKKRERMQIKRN"}, "ZβZBP1": {"biological_target": "T8, ZβZBP1 (Homo sapiens, UniProt Q9H171 4-10+87-167, internal_change)", "T8 sequence": "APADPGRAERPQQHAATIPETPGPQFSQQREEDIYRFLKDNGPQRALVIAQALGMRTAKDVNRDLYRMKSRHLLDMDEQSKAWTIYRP"}, "ZαZBP1": {"biological_target": "T9, ZαZBP1 (Homo sapiens, UniProt Q9H171 4-86)", "T9 sequence": "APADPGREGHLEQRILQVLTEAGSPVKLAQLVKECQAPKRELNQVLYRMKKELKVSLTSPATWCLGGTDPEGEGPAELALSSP"}}, "note": "Numbering of substitutions follows the chain as printed."}
{"binder": "B1", "values": [{"measurement": "binding result", "setting": "ZαβZBP1 N141D/Y145A", "value": "no binding"}, {"measurement": "binding result", "setting": "ZαβZBP1 N46D", "value": "no binding"}, {"measurement": "binding result", "setting": "ZαβZBP1 Y50A", "value": "no binding"}, {"measurement": "binding result", "setting": "[1]", "value": "no binding"}, {"measurement": "binding result", "setting": "ZαβZBP1 N46D/Y50A", "value": "no binding"}, {"measurement": "binding result", "setting": "ZαβZBP1", "value": "binds"}, {"measurement": "binding result", "setting": "ZαβADAR1", "value": "binds"}, {"measurement": "binding result", "setting": "ZβZBP1", "value": "binds"}, {"measurement": "binding result", "setting": "ZαZBP1", "value": "binds"}]}
